Laboratory results: patent US6911526B2, “Compounds that inhibit the interaction between signal-transducing proteins and the GLGF (PDZ/DHR) domain and uses thereof” (The Trustees of Columbia University in the City of New York, priority 1996, dated 2005)
Positions count from the first letter of the chain named. Entries after “also recorded” stand apart in the source; their conditions may differ. Where no end group is shown, it is not given here.

Experiments:
[1] = system: DLD-1 human colon cancer cells; test: Microinjection of synthetic tripeptides into DLD-1 cells, Fas-induced apoptosis; format: cell-based; conditions: tripeptide 100 mM microinjected into cytoplasm, Fas monoclonal antibody CH11 500 ng/ml, 16-20 hours postinjection, condensed chromatin (Hoechst 33342)
Method: DLD-1 human colon cancer cells were cultured in RPMI 1640 medium containing 10% FCS. For microinjection, cells were plated on CELLocate (Eppendorf) at 1×10^5 cells/2 ml in a 35 mm plastic culture dish and grown for 1 day. Just before microinjection, Fas monoclonal antibodies CH11 (MBL International) was added at the concentration of 500 ng/ml. All microinjection experiments were performed using an automatic microinjection system (Eppendorf transjector 5246, micro-manipulator 5171 and Femtotips) (Pantel, et al. 1995). Synthetic tripeptides were suspended in 0.1% (w/v) FITC-Dextran (Sigma)/K-PBS at the concentration of 100 mM. The samples were microinjected into the cytoplasmic region of DLD-1 cells. Sixteen to 20 hours postinjection, the cells were washed with PBS and stained with 10 μg/ml Hoechst 33342 in PBS. After incubation at 37° C. for 30 minutes, the cells were photographed and the cells showing condensed chromatin were counted as apoptotic.
For each experiment, 25-100 cells were microinjected. Apoptosis of microinjected cells was determined by assessing morphological changes of chromatin using phase contrast and fluorescence microscopy (Wang, et al., 1995; McGahon, et al., 1995). The data are means +/− S.D. for two or three independent determinations.

[2] = system: Fas/FAP-1 binding; test: In vitro inhibition assay of Fas/FAP-1 binding (GST-Fas and in vitro-translated 35S-FAP-1); conditions: for binding of in vitro-translated FAP-1 to GST-Fas: FIG. 3A, C-terminal 15 amino acids at 1-1000 μM, human PAMP 1 mM as negative control
Method: HFAP-10 cDNA (Sato, et al. 1995) subcloned into the Bluescript vector pSK-II (Stratagene) was in vitro-translated from an internal methionine codon in the presence of ^35S-L-methionine using a coupled in vitro transcription/translation system (Promega, TNT lysate) and T7 RNA polymerase. The resulting ^35S-labeled protein was incubated with GST-Fas fusion proteins that had been immobilized on […] affinity beads (Pharmacia) in a buffer containing 150 mM NaCl, 50 mM Tris [pH 8.0], 5 mM DTT, 2 mM EDTA, 0.1% NP-40, 1 mM PMSF, 50 μg/ml leupeptin, 1 mM Benzamidine, and 7 μg/ml pepstatin for 16 hours at 4° C. After washing vigorously 4 times in the same buffer, associated proteins were recovered with the glutathione-Sepharose beads by centrifugation, eluted into boiling Laemmli buffer, and analyzed by SDS-PAGE and fluorography.
In vitro-translated [^35S]HFAP-1 was purified with a NAP-5 column (Pharmacia) and incubated with 3 μM of GST-fusion proteins for 16 hours at 4° C. After washing 4 times in the binding buffer, radioactivity incorporation was determined in a b counter. The percentage of binding inhibition was calculated as follows: percent inhibition=[radioactivity incorporation using GST-Fas (191-335) with peptides−radioactivity incorporation using GST-Fas (191-320) with peptides]/[radioactivity incorporation using GST-Fas (191-335) without peptides−radioactivity incorporation using GST-Fas (191-320) without peptides]. n=3.

[3] = system: Fas/FAP-1 binding; test: Inhibition of binding of GST-FAP-1 to native Fas extracted from Jurkat T-cells (Western analysis); conditions: GST-FAP-1, Jurkat T-cell extracts; FIGS. 4C and 4D
Method: GST-fusion proteins with or without FAP-1 were incubated with cell extracts from Jurkat T-cells expressing Fas. The bound Fas was detected by Western analysis using anti-Fas monoclonal antibody (F22120, Transduction Laboratories). The tripeptides, Ac-SLV and Ac-SLY were used for the inhibition assay of Pas/FAP-1 binding.

[4] = system: FAP-1; test: Interaction of C-terminal tripeptides fused to LexA with FAP-1 in yeast two-hybrid system; format: cell-based; conditions: LexA fusion co-transformed into yeast L40 with pVP16-FAP-1; FIG. 4A
Text: The bait plasmids, pBTM116 (LexA)-SLV, -PLV, -SLY, and -SLA, were constructed and transformed into L40-strain with pVP16-FAP-1 or -ras. Six independent clones from each transformants were picked up for the analysis of growth on histidine-deficient medium. GST-Fas, -SLV, and PLV were purified with GST-Sepharose 4B affinity beads (Pharmacia). The methods for in vitro binding are described above.

[5] = biological target: T1, LexA-SLA fusion protein (UniProt P0A7C2 1-202); test: yeast two-hybrid (growth on histidine-deficient medium)
T1 construct: Yeast two-hybrid bait; also called pBTM116 (LexA)-SLA
T1 sequence: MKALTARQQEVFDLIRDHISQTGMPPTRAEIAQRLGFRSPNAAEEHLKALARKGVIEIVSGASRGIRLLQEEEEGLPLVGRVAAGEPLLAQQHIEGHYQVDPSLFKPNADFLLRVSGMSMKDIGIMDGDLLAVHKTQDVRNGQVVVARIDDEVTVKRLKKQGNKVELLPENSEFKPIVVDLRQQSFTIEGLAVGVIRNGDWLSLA

[6] = biological target: T2, LexA-SLY fusion protein (UniProt P0A7C2 1-202); test: as above
T2 construct: Yeast two-hybrid bait; also called pBTM116 (LexA)-SLY
T2 sequence: T1 sequence with A205Y

[7] = biological target: T3, LexA-PLV fusion protein (UniProt P0A7C2 1-202); test: as above
T3 construct: Yeast two-hybrid bait; also called pBTM116 (LexA)-PLV; -PLy
T3 sequence: T1 sequence with S203P, A205V

Ac-SLV-COOH (Ac-Ser-Leu-Val-OH) [acetylated tripeptide of the three C-terminal amino acids of Fas]
induction of apoptosis in microinjected DLD-1 cells [1]: dramatically induced apoptosis
inhibitory effect on the binding of FAP-1 to Fas, truncated acetylated peptides ([2]; FIG. 3B, acetylated synthetic peptides): same level of inhibitory effect
binding activity of FAP-1 to Fas proteins extracted from Jurkat T-cells [3]: abolished in a dose-dependent manner

human PAMP peptide: N-terminal 20 amino acids of proadrenomedullin, negative control (ARLDVASEFRKKWNKWALSR) [reference compound]
binding of in vitro-translated FAP-1 to GST-Fas [2]: no effect

Ac-SLY: acetylated synthetic tripeptide SLY, used as non-binding control (Ac-Ser-Leu-Tyr)
induction of apoptosis in microinjected DLD-1 cells [1]: did not; also recorded: only one cell of the area appeared apoptotic
binding activity of FAP-1 to Fas proteins extracted from Jurkat T-cells [3]: not

DSENSNFRNEIQSLV (Ac-DSENSNFRNEIQSLV) [synthetic 15 amino acids of Fas, synthetic peptide of the C-terminal 15 amino acids of Fas]
binding of in vitro-translated FAP-1 to GST-Fas [2]: dramatically reduced and dependent on the concentration

B1: LexA-SLV: LexA DNA binding domain fused to tripeptide SLV (yeast bait) (protein)
chain: T1 sequence with A205V
association with FAP-1 in yeast (growth on histidine-deficient medium) [4]: associated with FAP-1

B2: LexA-PLV: LexA DNA binding domain fused to tripeptide PLV (yeast bait) (protein)
chain: T1 sequence with S203P, A205V
association with FAP-1 in yeast (growth on histidine-deficient medium) [4]: did not

B3: LexA-SLY: LexA DNA binding domain fused to tripeptide SLY (yeast bait) (protein)
chain: T1 sequence with A205Y
association with FAP-1 in yeast (growth on histidine-deficient medium) [4]: did not

B4: LexA-PLY: LexA DNA binding domain fused to tripeptide PLY (yeast bait) (protein)
chain: T1 sequence with S203P, A205Y
association with FAP-1 in yeast (growth on histidine-deficient medium) [4]: did not

B5: LexA-SLA: LexA DNA binding domain fused to tripeptide SLA (yeast bait) (protein)
chain: T1 sequence
association with FAP-1 in yeast (growth on histidine-deficient medium) [4]: did not

B6: FAP-1 expressed from plasmid pVP16-31 (VP16 fusion, yeast two-hybrid prey) (other)
chain: KMNFKTFSSSPPKPGDIFEVELAKNDNSLGISVTGGVNTSVRHGGIYVKAVIPQGAAESDGRIHKGDRVLAVNGVSLEGATHKQAVETLRNTGQVVHLLLEKGQSPTSKEHVPVTPQCTLS
notes: also called pVP16-FAP-1; Fas-associated phosphatase-1
binding result [5]: no binding
binding result [6]: no binding
binding result [7]: no binding
